B1: PW5-5 (antibody, V domains shown)
VH: QVQLVQSGAEVKKPGASVKVSCKTSGYTFTDHYMYWVRQAPGQGLEWMGVINPDAGSVTYAQKFQGRVTMTSDTSTSTVYMELSSLRSEDTAVYYCARDLFFIPAANSFDYWGQGTLVTVSS
VL: EIVLTQSPATLSLSPGERATLSCRASQSVSSYLAWYQQKPGQAPRLLIYDATNRATGIPARFSGSGSGTDFTLTISSLEPEDFAVYYCQHRSNWPRMFTFGQGTKLEIK
notes: also called PW5-5 IgG; IgG PW5-5
B2: PW5-535 (antibody, V domains shown)
VH: EVRLVESGGGLVQPGGSLRLSCAASGFTFRNYDIHWVRQTTGKGLEWVSAVGTSGDTYYLDSVKGRFTISREDAKKSVYLQMNSLRAGDTAMYYCVRGDASPDNIYYYMDVWGTGTRVIVSS
VL: DIQVTQSPSPLSASVGDRVTITCRASQTIGKYLNWYHQIPGKAPKLLISAASTLHSGVPSRFSGRGSGTDFTLTISSLQPEDFGTYYCQQSYSSPPWTFGQGTKVEIK

Target: MERS-CoV S trimer (stabilized soluble S2P) (MERS-CoV, strain not named; stand-in …, UniProt K9N5Q8, stabilised)
Assay: ELISA
Settings: both partners purified

Row | Binder | binding result
1 | B1 | binds
2 | B2 | binds

From paper PMC10847457 (Cell Discovery, 2024)
